Source: the supplement of paper PMC12764529
± gives the half width of the 95% confidence interval.

Assays:
[1] = folding stability dG unfold from trypsin proteolysis; higher = more stable
Outline: (§1)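 K50 was inferred by Bayesian fitting of sequencing counts obtained after protease digestion of designed mini-proteins. Unfolding free energy was derived by comparison with a sequence-predicted unfolded-state K50 and a shared folded-state K50, for each protease or both combined. The mini-proteins were under 80 residues, had no cysteine, were carried in a PA-tagged cDNA display construct, and were kept only if AlphaFold2 dimer inter-PAE exceeded 15.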

[2] = folding stability dG unfold (combined trypsin and chymotrypsin); higher = more stable
Outline: as §1

[3] = folding stability dG unfold from chymotrypsin proteolysis; higher = more stable
Outline: as §1

SAGGSAGGSAGGSWKIDKFTSIERTDGGYVIRIRMENPDGPPMKQTFYFPPGDDELANISAGGSAGGSAGGS [r4_253_TrROS]
folding stability dG unfold [1]: 0.285 ± 0.21 kcal/mol | folding stability dG unfold [2]: 0.344 ± 0.27 kcal/mol | folding stability dG unfold [3]: 0.242 ± 0.3 kcal/mol

SAGGSAGGSAGGSWLEFTFIDPGYGWIISTMKIEINPNGNLNMDMEMVPLKPADDPEDASAGGSAGGSAGGS [r4_178_TrROS]
folding stability dG unfold [1]: 2.38 ± 0.13 kcal/mol | folding stability dG unfold [2]: 2.9 ± 0.16 kcal/mol | folding stability dG unfold [3]: 3.32 ± 0.099 kcal/mol

SAGGSAGGSAGGTGPDTPVTIETTVESVVYEGPEVKVVETFEKKITVTIPPTANPEKVSLSAGGSAGGSAGG [r7_591_JUSTAS]
folding stability dG unfold [1]: -0.81 ± 0.43 kcal/mol | folding stability dG unfold [2]: < -1 kcal/mol | folding stability dG unfold [3]: -1.06 ± 0.31 kcal/mol

SAGGSAGGSAGGTGPPPVKTLVIVANWTEEQAEALKKAFPDQEVTVYEIPGLPKTVAVVSSAGGSAGGSAGG [r17_254_TrMRF]
folding stability dG unfold [1]: 0.833 ± 0.03 kcal/mol | folding stability dG unfold [2]: 1.16 ± 0.17 kcal/mol | folding stability dG unfold [3]: 1.42 ± 0.086 kcal/mol

SAGGSAGGSAGGTIEELVKAGKTVKVRVRLKNGETLEVEIRPDEVVEFPNIEEIEVEEVSAGGSAGGSAGGS [r10_700_TrROS_Hall]
folding stability dG unfold [1]: 0.784 ± 0.016 kcal/mol | folding stability dG unfold [2]: 1.51 ± 0.05 kcal/mol | folding stability dG unfold [3]: 1.86 ± 0.026 kcal/mol

SAGGSAGGSAGGTPITDEEFRDLPDDVKLVFENGEVAYVPRDPLKVPIGADKTVTAEPVPSAGGSAGGSAGG [r7_643_TrMRF]
folding stability dG unfold [1]: 1.2 ± 0.059 kcal/mol | folding stability dG unfold [2]: 0.801 ± 0.056 kcal/mol | folding stability dG unfold [3]: 0.388 ± 0.035 kcal/mol

SAGGSAGGSAGGTVTFFEENEFVIDVPDPLTGRPIRIEVPGDPNKPEEIEARAEELRLSSAGGSAGGSAGGS [r10_379_JUSTAS]
folding stability dG unfold [1]: 0.187 ± 0.066 kcal/mol | folding stability dG unfold [2]: 0.0609 ± 0.072 kcal/mol | folding stability dG unfold [3]: -0.157 ± 0.096 kcal/mol

SAGGSAGGSAGGWAFMWVIEIEMPPEQMPPEDMKKFPNMRIEIEPYWVPIKIDPENGELRSAGGSAGGSAGG [r17_310_TrROS]
folding stability dG unfold [1]: 1.71 ± 0.075 kcal/mol | folding stability dG unfold [2]: 2.5 ± 0.19 kcal/mol | folding stability dG unfold [3]: 2.68 ± 0.04 kcal/mol

SAGGSAGGSAGGWDEIKDILREAGWPVKNVEVQWIPNPENGKPMNSITVSYPDGKKWTIMSAGGSAGGSAGG [r7_337_TrROS]
folding stability dG unfold [1]: -0.195 ± 0.13 kcal/mol | folding stability dG unfold [2]: 0.0642 ± 0.098 kcal/mol | folding stability dG unfold [3]: 0.0542 ± 0.19 kcal/mol

SAGGSAGGSAGGWFYKRDPDGKPLEPRPVVVIKISYEISYDADGGWKLKLNISIYPVYWISAGGSAGGSAGG [r7_572_TrROS]
folding stability dG unfold [1]: 3.58 ± 0.15 kcal/mol | folding stability dG unfold [2]: 4.77 ± 0.31 kcal/mol | folding stability dG unfold [3]: 5.01 ± 0.15 kcal/mol

SAGGSAGGSAGGWIMVPIEIKVDLKWGPNGQHEIETVPILIIIRIPPPPVPEEQAEKNNGSAGGSAGGSAGG [r11_318_TrROS]
folding stability dG unfold [1]: 2.89 ± 0.15 kcal/mol | folding stability dG unfold [2]: 2.81 ± 0.19 kcal/mol | folding stability dG unfold [3]: 2.68 ± 0.07 kcal/mol

SAGGSAGGSAGGWNIQVNPDNLKPGKEYRISITHPNGPPIPFEVRLKADGDGDWEFKIESAGGSAGGSAGGS [r10_390_TrROS]
folding stability dG unfold [1]: -0.0699 ± 0.059 kcal/mol | folding stability dG unfold [2]: 0.134 ± 0.091 kcal/mol | folding stability dG unfold [3]: 0.183 ± 0.12 kcal/mol

SAGGSAGGSAGGWNYIIFTIRYEFEYKDPNGKTMKHEVEITIIIPIPPIKRDEDGKYKLSAGGSAGGSAGGS [r10_168_TrROS]
folding stability dG unfold [1]: 2.31 ± 0.17 kcal/mol | folding stability dG unfold [2]: 2.79 ± 0.28 kcal/mol | folding stability dG unfold [3]: 3.35 ± 0.17 kcal/mol

SAGGSAGGSAGGWYRIEIEFGNKPREYVVPGAPPDEAADMLQDPGIKNVKVEPLPPEQLKSAGGSAGGSAGG [r7_502_TrROS]
folding stability dG unfold [1]: -0.817 ± 0.65 kcal/mol | folding stability dG unfold [2]: 0.174 ± 0.25 kcal/mol | folding stability dG unfold [3]: 0.537 ± 0.16 kcal/mol

SAGGSAGGSAGHIPIIFQFEFEHYDPDDGKPKEHRWVIVIEFDGNGIKNIRIIPKEDAKKLLSAGGSAGGSA [r18_406_TrROS]
folding stability dG unfold [1]: 2.31 ± 0.085 kcal/mol | folding stability dG unfold [2]: 2.25 ± 0.14 kcal/mol | folding stability dG unfold [3]: 2.28 ± 0.047 kcal/mol

SAGGSAGGSAGIITIWFPPDEEFRDFIENLPGPIEDVNIEPRNPGWIKVTLTMRMPPDQVSAGGSAGGSAGG [r11_143_TrROS]
folding stability dG unfold [1]: 0.703 ± 0.07 kcal/mol | folding stability dG unfold [2]: 0.871 ± 0.17 kcal/mol | folding stability dG unfold [3]: 0.864 ± 0.17 kcal/mol

SAGGSAGGSAGIKIEWEPNPNGSWRMKIEIPNPNGNPKKIEVWANPNGKIREDEAKEILNSAGGSAGGSAGG [r11_759_TrROS]
folding stability dG unfold [1]: 0.707 ± 0.12 kcal/mol | folding stability dG unfold [2]: 1.02 ± 0.39 kcal/mol | folding stability dG unfold [3]: 1.18 ± 0.24 kcal/mol

SAGGSAGGSAGIKIVAPSPELADMIAKEIAKEFGLPGKIKDIEIEVIPYKPTPNGGYQPYSAGGSAGGSAGG [r17_237_TrROS]
folding stability dG unfold [1]: -0.14 ± 0.26 kcal/mol | folding stability dG unfold [2]: -0.383 ± 0.81 kcal/mol | folding stability dG unfold [3]: -0.363 ± 0.75 kcal/mol
